Measured values from PMC7954794, “Protein context shapes the specificity of SH3 domain-mediated interactions in vivo” (Nature Communications, 2021).

B1: Hse1 (protein, UniProt P38753 2-452, looked up)
Class E vacuolar …: SSSAIKIRNALLKATDPKLRSDNWQYILDVCDLVKEDPEDNGQEVMSLIEKRLEQQDANVILRTLSLTVSLAENCGSRLRQEISSKNFTSLLYALIESHSVHITLKKAVTDVVKQLSDSFKDDPSLRAMGDLYDKIKRKAPYLVQPNVPEKHNMSTQADNSDDEELQKALKMSLFEYEKQKKLQEQEKESAEVLPQQQQQHQQQNQAPAHKIPAQTVVRRVRALYDLTTNEPDELSFRKGDVITVLEQVYRDWWKGALRGNMGIFPLNYVTPIVEPSKEEIEKEKNKEAIVFSQKTTIDQLHNSLNAASKTGNSNEVLQDPHIGDMYGSVTPLRPQVTRMLGKYAKEKEDMLSLRQVLANAERSYNQLMDRAANAHISPPVPGPALYAGMTHANNTPVMPPQRQSYQSNEYSPYPSNLPIQHPTNSANNTPQYGYDLGYSVVSQPPPGYEQ
B2: Lsb3 (protein)
chain: MGINNPIPRSLKSETKKAAKILASFVKPNQVFGADQVIPPDVLKRAKGLAIITILKAGFLFSGRAGSGVIVARLKDGTWSAPSAIAMAGAGAGGMVGIELTDFVFILNTQDAVKSFSEFGTITLGGNVSVSAGPLGRSAEAAASASAGGVAAVFAYSKSKGLFAGVSVEGSAIIERREANRKFYGDNCTAKMILSGRIRPPPAVDPLFRVLESRAFNYRPSNGGRGSFDDDEDDYYDDDDYYNDIPSSFSSTDASSTRPNTRSTRRRAQSGSRYTFDDDDDDDDYGTGYSRNSRLAPTNSGGSGGKLDDPSGASSYYASHRRSGTAQSRARSSRNRWADDEYDDYDDDYESGYRRGNGRDRTKDREVDDLSNRFSKSRISSASTPQTSQGRFTAPTSPSTSSPKAVALYSFAGEESGDLPFRKGDVITILKKSDSQNDWWTGRVNGREGIFPANYVELV
modifications: left off: DHFR F[3], C-terminal, kept
B3: Lsb1 (protein, UniProt P53281 2-241, looked up)
LAS seventeen-binding protein …: SASLVNRSLKNIRNELEFLKESNVISGDIFELINSKLPEKWDGNQRSPQNADTEEYVEALYDFEAQQDGDLSLKTGDKIQVLEKISPDWYRGKSNNKIGIFPANYVKPAFTRSASPKSAEAASSSTVSRPSVPPPSYEPAASQYPSQQVSAPYAPPAGYMQAPPPQQQQAPLPYPPPFTNYYQQPQQQYAPPSQQAPVEAQPQQSSGASSAFKSFGSKLGNAAIFGAGSAIGSDIVNSIF
B4: Myo5 (protein, UniProt Q04439 1-1219, looked up)
Myosin-5: MAILKRGARKKVHQEPAKRSANIKKATFDSSKKKEVGVSDLTLLSKISDEAINENLKKRFLNATIYTYIGHVLISVNPFRDLGIYTDAVMNEYKGKNRLEVPPHVFAIAESMYYNMKSYNENQCVIISGESGAGKTEAAKRIMQYIAAASSTHTESIGKIKDMVLATNPLLESFGCAKTLRNNNSSRHGKYLEIKFNNQFEPCAGNITNYLLEKQRVVSQIKNERNFHIFYQFTKGASDAYRQTFGVQKPEQYVYTAAAGCISAETIDDLQDYQETLKAMRVIGLGQEEQDQIFRMLAAILWIGNVSFIENEEGNAQVRDTSVTDFVAYLLQIDSQLLIKSLVERIMETNHGMKRGSVYHVPLNIVQADAVRDALAKAIYNNLFDWIVSRVNKSLQAFPGAEKSIGILDIYGFEIFEHNSFEQICINYVNEKLQQIFIQLTLKSEQETYEREKIQWTPIKYFDNKVVCDLIEARRPPGIFAAMNDSVATAHADSNAADQAFAQRLNLFTTNPHFDLRSNKFVIKHYAGDVTYDIDGITDKNKDQLQKDLVELIGTTTNTFLATIFPDTVDRESKRRPPTAGDKIIKSANDLVETLSKAQPSYIRTIKPNETKSPNDYDDRQVLHQIKYLGLQENVRIRRAGFAYRQVFEKFVERFYLLSPHCSYAGDYTWQGDTLDAVKYILQDSSIPQQEYQLGVTSVFIKTPETLFALEHMRDRYWHNMAARIQRAWRRFLQRRIDAATKIQRTIRERKEGNKYEKLRDYGTKVLGGRKERRSMSLLGYRAFMGDYLSCNESKSKGAYIKRQVSIKEKVIFSIHGEALHTKFGRSAQRLKKTFLLTPTTLYIVGQTLVQNAMTYTQDYKIDVRNIQAVSLTNLQDDWVAIKLASSGQPDPLINTYFKTELITHLKRLNDKIQIKIGSAIEYQKKPGKLHSVKCQINESAPKYGDIYKSSTISVRRGNPPNSQVHKKPRKKSSISSGYHASSSQATRRPVSIAAAQHVPTAPASRHSKKPAPPPPGMQNKAATRRSVPNPASTLTASQSNARPSPPTAATRATPAATPAAAAMGSGRQANIPPPPPPPPPSSKPKEPMFEAAYDFPGSGSPSELPLKKGDVIYITREEPSGWSLGKLLDGSKEGWVPTAYMKPHSGNNNIPTPPQNRDVPKPVLNSVQHDNTSANVIPAAAQASLGDGLANALAARANKMRLESDDEEANEDEEEDDW
B5: Hof1 (protein, UniProt Q05080 1-669, looked up)
Cytokinesis protein 2: MSYSYEACFWDPNDNGVNILLGHISQGIRSCDSMILFFKQRSELEKDYARRLGAITGKLDKDIGTNMDYGKLNETFNVVLSVEKARAQSHSKQSEILFRQIYTDTKAFAANLQARYTTLSGKIERLRMDKFNKKKGCEVLQKKLQDAQIRFRDLQLNENNMIGAKRVEHNKRELLKWESNSQEYKVQLDVLKQEYKASQKFWIHEWAQLSCELQEMENARISFLQSKLQQFATSSMETYILEQTKMDMLTNHLNSFTAADEISTFSKENGTGRLKHKTSKGDMNSSANWAQMSSISTTSKKTESYMDNIRKLSSQLKETENKRKLASIDKYEKPLPSPEVTMATQFRNSTPVIRNETKVVANPTLSLRSSPVQLQSNVDDSVLRQKPDKPRPIVGEEQLKPDEDSKNPDEKGLMVHKRNQSLSSPSESSSSNPTDFSHIKKRQSMESMTTSVSSMANSIDDSQRFAKSWNSSNRKRKSMSHLQVPSSASSRSDDGGRTPNSAHNLNEDDYNTRRDTSTSTILFKPPVAVRGTSRGHTHRQSMIMQDSSNPIEDALYEMERIQSSSKPGTKTGNIMDERGVVRDRGITVTLPIVTSEGFPVIEYAKAMYPLIGNEAPGLANFHKGDYLLITEIVNKDWYKGEVYDNDRIDRNHRIGLIPYNFIQLLHQGL

What follows are molecules tested on Abp1 PPIs (assay: DHFR-PCA of Abp1 SH3-swapped baits (Fig. 2B-D, S2C, S2F)). Conditions: number of interactions of Abp1 carrying the named SH3; sheet FigS2A-B.
Format: cell-based, Saccharomyces cerevisiae
Excerpt: Having determined that multiple PPIs require SH3s, we asked whether the latter establish PPI specificity independently from their host proteins by swapping domains (Fig. 2A). Using the second round of genome editing, we individually replaced Abp1 SH3 with the 27 yeast SH3s and 3 human Abp1 orthologs’ SH3s (CTTN, HCLS1, and DBNL, Fig. 2B). The reintroduction of its own SH3 (Abp1SH3 in Abp1) reconstitutes almost perfectly Abp1’s interaction profile (Kendall’s τ = 0.93, Fig. 2B). […] No homologous SH3 domain fully re-establishes the normal Abp1 PPI profile (Fig. 2B and Supplementary Fig. 2C). However, we observe a significant correlation (cophenetic correlation = 0.20, p value = 0.005, Fig. 2C) between the similarity of PPI profiles (Fig. 2B) and the sequence similarity of the SH3s. […] Nonetheless, a subset of SH3-dependent PPIs is only observed with the endogenous domain. For instance, Hua2 and App1, both well-characterized partners of Abp1[14],[18],[19], are only detected when Abp1 contains its own SH3 (WT or swapped via editing). A given SH3 may therefore not be fully replaceable with other paralogous or orthologous domains. This pattern is confirmed by cellular growth phenotypic analyses (Supplementary Fig. 2D, E). PPIs, SH3 sequence similarity, and growth profiles under stress conditions are correlated (Supplementary Fig. 2D, E). This relationship is particularly clear when analyzing growth on media supplemented with hygromycin.
The stuffing of YSC84 SH3 rendered the strain sterile and was therefore not used for this study as the assays require crosses. For genes containing two SH3s (BZZ1 and BEM1), a combination of this first stuffer with a second one ([…]) coding for a highly similar linker ([…]) was used, which allowed targeting each SH3 position independently. The two N-terminal domains of SLA1, which are separated by six nucleotides, were stuffed by a single stuffer. Cells containing pCAS were selected via the G418 resistance cassette from the plasmid on YPD plates (YPD + NAT 100 μg/ml (DHFR F[1,2] selection) + G418 200 µg/mL (Bioshop Canada)). Colonies were randomly selected and grown in YPD media without G418 to allow plasmid loss. The correct insertion of the stuffer was validated by PCR and Sanger sequencing. The SH3-swapped, -shuffled, and -mutated strains were constructed following a second CRISPR–Cas9 editing step with the same procedures. The stuffer sequences were targeted by specific gRNAs (one gRNA per stuffer) and replaced by PCR amplified specific SH3 (with 40 bp homology arms) or libraries of mutated SH3 domains for Deep Mutational Scanning (DMS) with 78 bp flanking homology regions. Validation of the SH3 domain insertions was done as we previously described except for DMS libraries (see below).
The overall DHFR-PCA pipeline is based on Tarassov et al.[43] and the procedures have also been published as a visualized protocol. The screens were performed with robotically manipulated pin tools (BM5-SC1, S&P Robotics Inc.). First, the preys were cherry-picked from 96-well plates to omnitrays in a 384 format on YPD + HPH solid media. Plates were then combined into the 1536 format on YPD + HPH. The array was constituted of 575 preys previously shown to interact physically with at least one SH3-containing protein as reported in BioGRID V3.4.16 along with 40 negative controls. The prey array comprised a border of control strains of two rows and two columns corresponding to the PPI between LSM8-DHFR F[1,2] and CDC39-DHFR F[3]. This double border was used to remove border effects. Preys are present in duplicate at a randomized position in the 1536 array (except for YAL041W which is present four times per array). Baits were crossed with two prey plates, resulting in four independent bait–prey tests for each PPI. Baits were grown in liquid YPD + NAT and then transferred on solid YPD + NAT omnitrays. They were then replicated on YPD + NAT omnitrays in 1536 array format. […]
In the case of B1, the “Interactions in Abp1” value is reported as 77.
B2 was tested, and the “Interactions in Abp1” value was 107.
With B3 the “Interactions in Abp1” value was 106.
B4 was tested, and the “Interactions in Abp1” value was 100.
In the case of B5, the “Interactions in Abp1” value is reported as 15.

These molecules were tested on Abp1 (1xFLAG) (assay: Western blot expression level of Abp1 SH3-swapped baits (Fig. S2A-B)). Conditions: Flag signal relative to Abp1 WT (Abp1-1 to Abp1-4 = 1); sheet FigS2A-B.
Format: cell-based, Saccharomyces cerevisiae
Design: Flag (2 bands): unit not given here
Experimental: Precultures of yeast cells expressing baits fused with the DHFR F[1,2]-FLAG were grown overnight at 30 °C with agitation in synthetic complete medium. The next day, cells were expanded in synthetic complete medium to reach their exponential phase (OD600 of around 1.0), pelleted, and frozen at −80 °C. The equivalent of fifty OD600 of cells was resuspended in ice-cold yeast lysis buffer (10 mM Tris-HCl pH 7.4, 150 mM NaCl, 0.5 mM EDTA (Millipore Sigma), 1% Triton X-100 (Millipore Sigma), and one cOmplete Mini Protease Inhibitor Cocktail (Millipore Sigma) per 10 mL) with […] glass beads (Millipore Sigma) and disrupted at 4 °C by 10 cycles of 2 min vortexing and 2 min cooldown. The equivalent of […] of lysed cells was used for the immunoprecipitation of the bait proteins using FLAG-M2 agarose beads (Millipore Sigma). The beads were incubated with the cell lysates for 120 min at 4 °C with a slow rotation, followed by three washes with the yeast lysis buffer.
Protein extracts and affinity-purified baits from yeast and human lysed cells were migrated on 10% polyacrylamide gels. The separated proteins were then transferred to nitrocellulose membranes. Validation of correct protein loading was done with ponceau staining of the membranes. Before the primary antibody incubations, membranes were blocked in 5% milk. Protein signals were detected on an Amersham Imager 600RGB (GE Healthcare) following the incubation of the membranes with the appropriate HRP-conjugated secondary antibodies and the Clarity Western ECL Substrate (Bio-Rad). The antibodies used in this study are M2-HRP (A8592, Sigma, 1/50,000), rabbit anti-FLAG (F7425, Sigma, 1/1000), PAK (SC-881, Santa Cruz, 1/200), p130cas/BCAR1 (SC-860, Santa Cruz, 1/200), actin (Cell Signaling Technology, 1/2000), anti-mouse HRP (Cell Signaling Technology, 1/10,000) and anti-rabbit HRP (Cell Signaling Technology, 1/10,000). The quantification of the WB signals was performed with the Amersham Imager 600 analysis software (GE Healthcare).
For B1, the “Ratio Swap/WT Flag” value was 0.5073.
B2 was tested, and the “Ratio Swap/WT Flag” value was 0.537.
With B3 the “Ratio Swap/WT Flag” value was 0.4741.
With B4 the “Ratio Swap/WT Flag” value was 0.7689.
B5 was tested, and the “Ratio Swap/WT Flag” value was 1.051.

Same assay, conditions: Western blot Flag signal (2 bands), Abp1 WT, SH3-deleted or SH3-swapped; sheet FigS2A-B
For B1, the “Flag (2 bands)” value was 54180.
With B2 the “Flag (2 bands)” value was 57357.
In the case of B3, the “Flag (2 bands)” value is reported as 50638.
With B4 the “Flag (2 bands)” value was 82124.
For B5, the “Flag (2 bands)” value was 112286.
